Results published in paper PMC3223204, “Implantation Serine Proteinase 1 Exhibits Mixed Substrate Specificity that Silences Signaling via Proteinase-Activated Receptors” (PLoS ONE, 2011).

How the values were obtained:
[1] = target: T1, rat PAR2 (Rattus norvegicus, UniProt Q63645); assay: Calcium signaling assay, PAR2 activation/disarming in KNRK cells; assay type: cell-based
T1 construct: expressed in transfected cells; host or cells: KNRK (Kirsten virus-transformed normal rat kidney) cells
T1 sequence (Q63645 26-397): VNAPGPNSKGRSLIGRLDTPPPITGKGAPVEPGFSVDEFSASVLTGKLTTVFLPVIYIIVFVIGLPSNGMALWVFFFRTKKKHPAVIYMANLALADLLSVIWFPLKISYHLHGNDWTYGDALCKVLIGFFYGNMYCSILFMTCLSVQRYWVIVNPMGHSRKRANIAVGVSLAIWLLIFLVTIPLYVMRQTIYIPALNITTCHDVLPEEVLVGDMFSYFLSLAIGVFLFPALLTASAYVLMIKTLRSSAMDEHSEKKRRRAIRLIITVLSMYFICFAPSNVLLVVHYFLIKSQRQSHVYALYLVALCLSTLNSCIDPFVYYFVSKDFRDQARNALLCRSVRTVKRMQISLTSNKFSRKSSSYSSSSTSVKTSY
Source text: The Kirsten virus-transformed normal rat kidney (KNRK) epithelial cell line expressing wild-type rat PAR2 (KNRKrPAR2), validated previously for studies of receptor activation was used to evaluate the PAR2-regulating properties of the ISP1 by the methods described previously. Human embryonic kidney cells (HEK293) that express the SV40 T-antigen were kindly provided by Dr. Jonathan Lytton, University of Calgary, Faculty of Medicine, Calgary (Alberta) Canada. The human HEK293 cells, that constitutively express both PAR1 and PAR2, were grown under similar conditions as described for the KNRK cells, but in the absence of geneticin, as outlined for the PAR-mediated calcium signaling procedure described previously. All cells were sub-cultured by dissociation in an isotonic EDTA/saline solution, pH 7.4, without the use of trypsin, to avoid cleavage of PARs.
(§1) Cell lines (grown to about 85% confluence and disaggregated with calcium-free isotonic phosphate-buffered saline containing 0.2 mM EDTA) and rat platelets (harvested from platelet-rich anti-coagulated plasma) were prepared and used as previously described. Cells were incubated for 25 min at room temperature with Fluo-3 acetoxymethyl ester (final concentration, 22 µM) along with 0.4 mM sulfinpyrazone. Cells were washed twice by centrifugation (using the following buffer without calcium) and resuspended in the calcium signaling buffer: 150 mM NaCl, 3 mM KCl, 1.5 mM CaCl2, 20 mM HEPES, 10 mM dextrose, and 0.25 mM sulfinpyrazone, pH 7.4.
Fluorescence was measured at 24 °C with an excitation wavelength of 480 nm and an emission recorded at 530 nm using an Aminco Bowman Series 2 Luminescence spectrometer (ThermoSpectronic Model FA354, Spectronic Unicam, Rochester, NY). The fluorescence signals caused by the addition of test agonists (trypsin, PAR-activating peptide or rISP1, added to 2 ml of a cell suspension of ~3 x 10^5 cells/ml) were compared with the fluorescence peak height yielded by replicate cell suspensions treated with 2 µM ionophore A23187. This concentration of A23187 was at the plateau of its concentration-response curve for a fluorescence response in Fluo-3-loaded cultured cells. Under these conditions, the calculated values for intracellular calcium in the HEK and KNRK cells were [picture] […]
Previous work has shown that the fluorescence response of a cell preparation, as a percentage relative to the signal generated by 2 µM A23187, is a valid reference standard for the comparative determination of calcium signals for all PAR agonists. The cellular calcium response was therefore recorded as a percentage of the response generated by 2 µM ionophore A23187 [6]. […]
Receptor activation was monitored as an enzyme-stimulated increase in fluorescence emission (E530). […]

[2] = target: T2, rat PAR4 (Rattus norvegicus, UniProt Q920E0); assay: Calcium signaling assay, PAR4 activation/disarming in rat platelets; assay type: cell-based
T2 construct: rat platelets that express only functional PAR4 but neither PAR1 nor PAR2; endogenous in cells; host or cells: rat platelets from platelet-rich plasma
T2 sequence (Q920E0 17-395): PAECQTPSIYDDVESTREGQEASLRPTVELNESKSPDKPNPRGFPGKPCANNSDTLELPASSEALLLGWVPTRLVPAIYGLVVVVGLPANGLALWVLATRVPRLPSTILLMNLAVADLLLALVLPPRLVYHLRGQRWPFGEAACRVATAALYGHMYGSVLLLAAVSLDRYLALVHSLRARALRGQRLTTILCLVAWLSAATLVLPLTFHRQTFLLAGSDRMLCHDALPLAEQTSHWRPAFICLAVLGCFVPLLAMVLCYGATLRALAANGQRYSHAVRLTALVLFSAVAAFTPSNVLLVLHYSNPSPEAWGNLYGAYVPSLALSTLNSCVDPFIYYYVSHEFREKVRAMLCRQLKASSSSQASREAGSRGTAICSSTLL
Method: as §1
Fluorescence was measured at 24 °C with an excitation wavelength of 480 nm and an emission recorded at 530 nm using an Aminco Bowman Series 2 Luminescence spectrometer (ThermoSpectronic Model FA354, Spectronic Unicam, Rochester, NY). The fluorescence signals caused by the addition of test agonists (trypsin, PAR-activating peptide or rISP1, added to 2 ml of a cell suspension of ~3 x 10^5 cells/ml) were compared with the fluorescence peak height yielded by replicate cell suspensions treated with 2 µM ionophore A23187. This concentration of A23187 was at the plateau of its concentration-response curve for a fluorescence response in Fluo-3-loaded cultured cells. Under these conditions, the calculated values for intracellular calcium in the HEK and KNRK cells were [picture] 30 nM under basal conditions and about 340 nM upon exposure to A23187 [8, 9].
Previous work has shown that the fluorescence response of a cell preparation, as a percentage relative to the signal generated by 2 µM A23187, is a valid reference standard for the comparative determination of calcium signals for all PAR agonists. The cellular calcium response was therefore recorded as a percentage of the response generated by 2 µM ionophore A23187 [6]. Concentration-effect curves for recombinant enzyme (rISP1) were obtained by measuring the calcium signals generated by measuring the effects (receptor activation or disarming) of increasing enzyme concentrations in replicate cell suspensions (2 ml).
Receptor activation was monitored as an enzyme-stimulated increase in fluorescence emission (E530). As outlined in the following paragraph, receptor disarming or disabling was ascertained by the ability of ISP1 pre-treatment of the cells to abrogate the calcium signal caused by the subsequent addition of either a PAR-activating enzyme (thrombin for PARs 1 & 4; trypsin for PAR2) or a PAR-activating peptide (a reduced response to the activating peptide reflects receptor disabling). […]

Cellular response to PAR2-activating peptide after ISP1 pre-treatment ([1]; SLIGRL-NH2 (10 µM), concentration-dependent): diminished
Activation of a calcium signal via PAR2 ([1]; enzyme alone): did not activate a calcium signal
residual PAR2 activity triggered by trypsin ([1]; pre-treatment with 5 Units/ml ISP1, then trypsin (1.0 units/ml)): ~80%
residual PAR2 activity (% of control) ([1]; pre-treatment with 20 units ISP1/ml, then trypsin (1.0 units/ml)): ~40%
Cellular response to PAR4-activating peptide after ISP1 pre-treatment ([2]; AYPGKF-NH2 (100 µM), concentration-dependent): diminished
Activation of a calcium signal via PAR4 ([2]; enzyme alone): did not activate a calcium signal
residual PAR4 activity triggered by thrombin ([2]; pre-treatment with 5 Units/ml ISP1, then thrombin (0.5 units/ml)): ~75%
residual PAR4 activity (% of control) ([2]; pre-treatment with 20 units ISP1/ml, then thrombin (0.5 units/ml)): ~20%
B1: ISP1: recombinant implantation serine proteinase 1 expressed in Pichia pastoris, also known as Mouse Prss28 (protein, UniProt Q924N9 27-274, looked up)
Serine protease 28: KPVGIVGGQRTPPGKWPWQVSLRMYSYEVNSWVHICGGSIIHPQWILTAAHCIQSQDADPAVYRVQVGEVYLYKEQELLNISRIIIHPDYNDVSKRFDLALMQLTALLVTSTNVSPVSLPKDSSTFDSTDQCWLVGWGNLLQRVPLQPPYQLHEVKIPIQDNKSCKRAYRKKSSDEHKAVAIFDDMLCAGTSGRGPCFGDSGGPLVCWKSNKWIQVGVVSKGIDCSNNLPSIFSRVQSSLAWIHQHIQ
modifications: recombinant, Pichia pastoris-expressed
notes: recombinant implantation serine proteinase 1 expressed in Pichia pastoris, also known as Mouse Prss28
